Test results published in IntAct's records for PubMed 24671035.

B1: FUN14 domain-containing protein 1 (Homo sapiens), Q8IVP5 (parent)
chain: MATRNPPPQDYESDDDSYEVLDLTEYARRHQWWNRVFGHSSGPMVEKYSVATQIVMGGVTGWCAGFLFQKVGKLAATAVGGGFLLLQIASHSGYVQIDWKRVEKDVNKAKRQIKKRANKAAPEINNLIEEATEFIKQNIVISSGFVGGFLLGLAS
B2: FUN14 domain-containing protein 1 (Homo sapiens), Q8IVP5 (parent)
chain: B1 chain
partner: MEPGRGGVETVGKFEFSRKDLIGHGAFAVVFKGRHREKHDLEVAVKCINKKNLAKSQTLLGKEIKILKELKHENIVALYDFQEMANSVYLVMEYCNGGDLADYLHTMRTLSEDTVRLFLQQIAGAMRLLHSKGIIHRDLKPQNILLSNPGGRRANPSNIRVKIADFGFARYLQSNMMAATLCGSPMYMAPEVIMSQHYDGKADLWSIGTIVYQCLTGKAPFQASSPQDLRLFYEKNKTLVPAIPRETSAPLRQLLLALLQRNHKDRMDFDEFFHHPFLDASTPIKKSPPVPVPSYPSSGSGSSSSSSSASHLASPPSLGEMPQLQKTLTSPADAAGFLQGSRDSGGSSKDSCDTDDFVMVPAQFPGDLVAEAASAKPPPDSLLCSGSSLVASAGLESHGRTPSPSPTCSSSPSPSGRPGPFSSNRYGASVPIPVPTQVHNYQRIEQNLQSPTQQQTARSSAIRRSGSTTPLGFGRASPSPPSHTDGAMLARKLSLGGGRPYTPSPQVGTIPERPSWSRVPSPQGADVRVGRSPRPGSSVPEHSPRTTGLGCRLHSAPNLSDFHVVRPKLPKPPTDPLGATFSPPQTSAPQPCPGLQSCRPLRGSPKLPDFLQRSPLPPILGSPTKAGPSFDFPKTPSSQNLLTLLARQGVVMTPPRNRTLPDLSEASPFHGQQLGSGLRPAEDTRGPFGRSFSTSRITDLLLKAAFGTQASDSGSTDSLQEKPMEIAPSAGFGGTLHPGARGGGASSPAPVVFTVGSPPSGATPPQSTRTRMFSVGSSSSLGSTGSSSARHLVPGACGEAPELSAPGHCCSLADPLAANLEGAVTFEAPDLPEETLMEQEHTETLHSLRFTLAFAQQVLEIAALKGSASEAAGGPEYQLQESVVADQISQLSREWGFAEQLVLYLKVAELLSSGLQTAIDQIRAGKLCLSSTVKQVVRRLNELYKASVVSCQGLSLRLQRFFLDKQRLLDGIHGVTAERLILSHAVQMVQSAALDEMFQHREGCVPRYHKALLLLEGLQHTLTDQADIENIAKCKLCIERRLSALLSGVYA

Variants of: B1
Conditions: with mlp3b_human MAP1LC3B
In the case of S17A, the “effect of a mutation on the interaction” value is reported as “decreasing interaction”.

Variants of: B1
Conditions: with mlp3b_human MAP1LC3B
Remark: another data set of the same source
With S17D the “effect of a mutation on the interaction” value was “increasing interaction”.

Variants of: B2
Conditions: with ulk1_mouse Ulk1, O70405
With N118A the “effect of a mutation on the interaction” value was “disrupting interaction”.
